From patent publication US20250250357A1 (NANJING ZAIMING PHARMACEUTICAL, published 2025)
Numbering of substitutions follows the chain as printed.

T1: human MSLN-R1-his protein (human, UniProt Q13421 296-390)
T1 construct: Made in HEK293E cells, purified on nickel column; also called hMSLN-R1-his; human MSLN-R1 protein; not shown: His tag
T1 chain: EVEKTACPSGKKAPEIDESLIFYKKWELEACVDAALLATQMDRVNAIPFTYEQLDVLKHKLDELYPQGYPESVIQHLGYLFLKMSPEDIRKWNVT

B1: S009-F7.53.2 chimeric antibody (antibody, human IgG1, kappa, V domains shown)
VH: EVQLQQSGPELVKPGASVKIPCKTSGYTFTDYNMDWVKQSHGKSLEWIGDINPNTDGAIYNQKFQNKATLTVDKSSSTAYMELRSLTSEDTAVYYCTRRKLGRKFFDYWGQGTTLTVSS
VL: QIVLTQSPAIMSASPGEQVTMTCSASSSVGYMNWYQQKPGSSPRLLIYDTSNLASGVPVHFSGSGSGTSYSLTISRMEAAFAATYYCQQWYVYPYTFGGGTKLEIKR
notes: Human-murine chimeric antibody, human IgG1/kappa constant regions
B2: S009-F7.26.15 chimeric antibody (antibody, human IgG1, kappa, V domains shown)
VH: DVQLQESGPGLVKPSQTVFLTCTVTGISITTGNYRWSWIRQFPGNKLEWIGYIYYTGFITYNPSLTSRTTITRDTPKNQFFLEMKSLTAEDTATYYCARDDYDYDVFAYWGQGTLVTVSA
VL: DIQMTQSPASLSASVGETVTITCRASGNIHNYLAWYHQKQGKSPQFLVYKAKTLADGVPSRFSGSGSGTQYSLKINRLQPEDFGSYYCQHFLSIPLTFGAGTKLELKR
notes: as for B1
B3: S009-F7.65.13 chimeric antibody (antibody, human IgG1, kappa, V domains shown)
VH: EVQLQQSGPELVKPGTSVKILCKASGDTFTAYNMDWVKQRHGQSLEWIGDINPNTDSTIYNQKFEGKAILTVDKSSSTAYMELRSLTSEDTAVYYCARRKLGRGYFDYWGQGTTLTVSS
VL: QIVLTQSPAIMSASPGEKVTMTCSVNLSVRYIYWYQQKPGSSPRLLIHDTSNLASGVPVRFSGSGSGTSYSLTISRMEAEDAATYYCQQWSSFPYTFGGGTKLEIKR
notes: as for B1
B4: S009-F7.44.20 chimeric antibody (antibody, human IgG1, kappa, V domains shown)
VH: EVQLQQSGPELVKPGASVKIPCKASGYTFTDYNMDWVKQSHGKSLEWIGDINPSTGGTIYNQKFNGKATLTEDKSASTVYMEFRSLTSDDTAVYYCARRRIGTGYFDVWGTGTTVTVSS
VL: QIVLTQSPALMSASPGEKVTLTCSASSSVISSYLSWYQQKPGSSPKLLIYRTSNLASGVPARFSGSGSGTSYSLTISSMEAEDAASYFCHQWSSFPYTFGGGTKLEIKR
notes: as for B1
B5: S009-F7.61.21 chimeric antibody (antibody, human IgG1, kappa, V domains shown)
VH: DVQLQQSGPELVEPGASVRIPCKAAGHTFTDYNVDWVKQSHGQSLEWIGDVNPNTDGAIYNQKFEGKATLTVDTSSSTAYMELRSLTSEDTAVYFCARRRLGQGGFDSWGQGTTLTVSS
VL: B4 VL with I2V, L10I, S24G, V29L, S32K, S35Y, L48W, R51S, F95Y, L105V
notes: as for B1
B6: S009-F7.23.19 chimeric antibody (antibody, human IgG1, kappa, V domains shown)
VH: EVKLVESGGGLVQPGGSLSLSCAASGFTFTDYYMSWVRQPPGKALEWLGFIRSKANAYTTEYSASVKGRFTISRDNSQSILYLQMNDLRAEDSATYYCARYYYYGSGYVWYFDVWGTGTTVTVSS
VL: DIVMTQSQKFMSTSVGDRVSVTCKASQSVGTNVAWYQQKPGQFPKALIYSASYRYSGVPDRFTGSGSGTDFTLTIINVQSEDLAEYFCQQYNSYPLTFGAGTKLELKR
notes: as for B1
B7: S009-F7.30.5 chimeric antibody (antibody, human IgG1, kappa, V domains shown)
VH: QVQLQQPKTELVKPGASVKLSCKASGYIFTTYWMHWVKQRPGQGLEWIGNVNPSNGGTMYNEKFERRATLTVDKSSSTADMQLSSLTSEDSAVYYCVPHYIGSRPGFAYWGQGTLVTVSG
VL: B6 VL with S28N, Q38H, F43S, I48L, I76T, A100G, L106I
notes: as for B1
B8: S009-F7.33.24 chimeric antibody (antibody, human IgG1, kappa, V domains shown)
VH: B7 VH with K8G, I28T, T31S, T58S, M59N, E65K, R66N, R67K, S84N, V97A
VL: B6 VL with S28N, V33I, F43S, I76T, A100G, L104V, L106I
notes: as for B1
B9: S009-F7.48.1 chimeric antibody (antibody, human IgG1, kappa, V domains shown)
VH: QVQLQQPGTELVKPGASVKLSCKASGYTFTSYWMHWVKQRPGQGLEWIGNINPSNGGTNNNENFKSKATLTVDTSSSTAYMQLSSLTSEDSAVYYCVRNGYHGYWYFDVWGTGTTVTVSS
VL: B6 VL with S28N, K39Q, F43S, G66V, I76S, A100G, L106I
notes: as for B1
B10: S009-F7.41.18 chimeric antibody (antibody, human IgG1, kappa, V domains shown)
VH: QVQLQQPGTELVKPGASVKLSCKASDYTFTSYWMHWVKQRPGQGLEWIGSINPSNGDTYYNEKFKNKATLTVDKSSSTAYMQLSSLTSDDSAVYYCARGWYFDVWGTGTTVTVSS
VL: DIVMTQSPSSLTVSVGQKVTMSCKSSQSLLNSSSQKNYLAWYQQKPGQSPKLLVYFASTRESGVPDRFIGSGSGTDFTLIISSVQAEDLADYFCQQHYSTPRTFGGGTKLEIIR
notes: as for B1

The binders below were run against T2, human MSLN-FL-his protein (human, UniProt Q13421 296-580) (assay: ELISA, coated antigen, antibody 20 nM).
T2 construct: Made in HEK293E cells, purified on nickel column; also called hMSLN-FL-his; human MSLN full-length protein; not shown: His tag

OD450 | Binder
2.2 | B1
2.52 | B2
2.12 | B3
2.21 | B4
2.14 | B5
2.46 | B6
2.43 | B7
2.53 | B8
2.21 | B9
2.24 | B10

Biological target: T1, human MSLN-R1-his protein
Test: ELISA, coated antigen, antibody 2 nM
Method: (§1) The plate was sealed with a plastic film and incubated at 4° C. overnight. The next day, the plate was washed twice with PBST, and a blocking buffer [PBS+2% (w/w) BSA] was added for blocking at room temperature for 2 h. The blocking buffer was discarded, and a chimeric antibody or negative control antibody serially diluted from 100 nM was added at 50 μL/well. After incubation at 37° C. for 2 h, the plate was washed 3 times with PBST. […] After incubation at 37° C. for 2 h, the plate was washed 5 times with PBST. A TMB substrate was added at 50 μL/well for incubation at room temperature for 5-10 min, and then a stop solution (1.0 N HCl) was added at 50 μL/well.

OD450 | Binder
0.05 | B1
0.05 | B2
0.05 | B3
0.04 | B4
0.05 | B5
0.05 | B6
0.06 | B7
0.06 | B8
0.04 | B9
0.06 | B10

Each binder was assayed against T2, human MSLN-FL-his protein (assay: ELISA, coated antigen, antibody 200 nM).
Method: as §1

OD450 | Binder
2.6 | B1
2.39 | B2
2.13 | B3
2.36 | B4
2.15 | B5
2.5 | B6
2.36 | B7
2.48 | B8
2.62 | B9
2.3 | B10

Biological target: T1, human MSLN-R1-his protein
Test: ELISA, coated antigen, antibody 0.2 nM
Method: as §1

OD450 | Binder
0.04 | B1
0.05 | B2
0.05 | B3
0.04 | B4
0.05 | B5
0.05 | B6
0.05 | B7
0.05 | B8
0.04 | B9
0.06 | B10

Biological target: T1, human MSLN-R1-his protein
Test: ELISA, coated antigen, antibody 0.0002 nM
Method: as §1

OD450 | Binder
0.05 | B1
0.04 | B2
0.05 | B3
0.04 | B4
0.05 | B5
0.05 | B6
0.05 | B7
0.06 | B8
0.04 | B9
0.06 | B10

Biological target: T1, human MSLN-R1-his protein
Test: ELISA, coated antigen, antibody 20 nM
Method: as §1

OD450 | Binder
0.05 | B1
0.06 | B2
0.05 | B3
0.05 | B4
0.05 | B5
0.05 | B6
0.1 | B7
0.08 | B8
0.05 | B9
0.07 | B10

What follows are binders tested against T2, human MSLN-FL-his protein (assay: ELISA, coated antigen, antibody 0.002 nM).
Method: as §1

OD450 | Binder
0.12 | B1
0.91 | B2
0.52 | B3
0.93 | B4
0.23 | B5
0.41 | B6
0.96 | B7
1.06 | B8
0.24 | B9
0.25 | B10

Biological target: T1, human MSLN-R1-his protein
Test: ELISA, coated antigen, antibody 0.02 nM
Method: as §1

OD450 | Binder
0.04 | B1
0.05 | B2
0.05 | B3
0.04 | B4
0.05 | B5
0.05 | B6
0.05 | B7
0.06 | B8
0.04 | B9
0.05 | B10

Biological target: T1, human MSLN-R1-his protein
Test: ELISA, coated antigen, antibody 0.002 nM
Method: as §1

OD450 | Binder
0.05 | B1
0.05 | B2
0.05 | B3
0.04 | B4
0.05 | B5
0.05 | B6
0.05 | B7
0.06 | B8
0.04 | B9
0.06 | B10

Biological target: T1, human MSLN-R1-his protein
Test: ELISA, coated antigen, no antibody (blank)
Method: as §1

OD450 | Binder
0.06 | B1
0.06 | B2
0.07 | B3
0.06 | B4
0.07 | B5
0.06 | B6
0.06 | B7
0.06 | B8
0.06 | B9
0.06 | B10

The binders below were run against T2, human MSLN-FL-his protein (assay: ELISA, coated antigen, antibody 2 nM).
Method: as §1

OD450 | Binder
2.1 | B1
2.43 | B2
2.11 | B3
2.24 | B4
2.14 | B5
2.4 | B6
2.41 | B7
2.54 | B8
2.12 | B9
2.26 | B10

The binders below were run against T2, human MSLN-FL-his protein (assay: ELISA, coated antigen, antibody 0.02 nM).
Method: as §1

OD450 | Binder
0.47 | B1
1.76 | B2
1.35 | B3
1.82 | B4
0.95 | B5
1.32 | B6
1.77 | B7
2.01 | B8
0.86 | B9
1 | B10

What follows are binders tested against T2, human MSLN-FL-his protein (assay: ELISA, coated antigen, antibody 0.0002 nM).
Method: as §1

OD450 | Binder
0.06 | B1
0.25 | B2
0.24 | B3
0.26 | B4
0.09 | B5
0.11 | B6
0.36 | B7
0.26 | B8
0.09 | B9
0.08 | B10

The binders below were run against T2, human MSLN-FL-his protein (assay: ELISA, coated antigen, no antibody (blank)).
Method: as §1

OD450 | Binder
0.06 | B1
0.06 | B2
0.06 | B3
0.06 | B4
0.06 | B5
0.06 | B6
0.06 | B7
0.06 | B8
0.06 | B9
0.06 | B10

Biological target: T1, human MSLN-R1-his protein
Test: ELISA, coated antigen, antibody 200 nM
Method: as §1

OD450 | Binder
0.07 | B1
0.12 | B2
0.08 | B3
0.07 | B4
0.07 | B5
0.08 | B6
0.32 | B7
0.15 | B8
0.07 | B9
0.09 | B10

The binders below were run against T2, human MSLN-FL-his protein (assay: ELISA, coated antigen, antibody 0.2 nM).

OD450 | Binder
1.53 | B1
2.33 | B2
2.1 | B3
2.26 | B4
1.96 | B5
2.22 | B6
2.39 | B7
2.6 | B8
1.87 | B9
2.04 | B10
